Test results from US10087225B2, “Formulation of MK2 inhibitor peptides” (MOERAE MATRIX, INC., priority 2015, dated 2018).

Legend:
Assay in all cases: Kinase Profiling Assay
[1] = target: MINK(h) (Homo sapiens, UniProt Q8N4C8); type: biochemical
[2] = target: Flt3(D835Y)(h) (Homo sapiens, UniProt P36888, D835Y); type: biochemical
[3] = tested on: p70S6K(h); type: biochemical, human; details: 100 μM
[4] = target: T1, LKB1(h) (Homo sapiens, UniProt Q15831); type: biochemical; details: 100 μM
T1 sequence (Q15831 1-433): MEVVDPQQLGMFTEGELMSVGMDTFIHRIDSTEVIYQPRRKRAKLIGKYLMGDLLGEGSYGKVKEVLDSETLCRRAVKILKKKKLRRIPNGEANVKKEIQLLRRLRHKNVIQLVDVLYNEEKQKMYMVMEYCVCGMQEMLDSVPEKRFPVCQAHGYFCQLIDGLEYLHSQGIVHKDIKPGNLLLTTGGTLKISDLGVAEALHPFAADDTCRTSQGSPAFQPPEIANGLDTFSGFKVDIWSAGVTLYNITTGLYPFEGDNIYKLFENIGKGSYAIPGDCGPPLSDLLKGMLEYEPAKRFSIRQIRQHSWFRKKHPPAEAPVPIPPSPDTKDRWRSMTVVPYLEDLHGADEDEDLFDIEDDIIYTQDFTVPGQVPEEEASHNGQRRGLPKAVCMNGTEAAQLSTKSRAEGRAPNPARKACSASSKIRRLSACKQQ
T1 sequence (Q7RTN6 1-431 partner): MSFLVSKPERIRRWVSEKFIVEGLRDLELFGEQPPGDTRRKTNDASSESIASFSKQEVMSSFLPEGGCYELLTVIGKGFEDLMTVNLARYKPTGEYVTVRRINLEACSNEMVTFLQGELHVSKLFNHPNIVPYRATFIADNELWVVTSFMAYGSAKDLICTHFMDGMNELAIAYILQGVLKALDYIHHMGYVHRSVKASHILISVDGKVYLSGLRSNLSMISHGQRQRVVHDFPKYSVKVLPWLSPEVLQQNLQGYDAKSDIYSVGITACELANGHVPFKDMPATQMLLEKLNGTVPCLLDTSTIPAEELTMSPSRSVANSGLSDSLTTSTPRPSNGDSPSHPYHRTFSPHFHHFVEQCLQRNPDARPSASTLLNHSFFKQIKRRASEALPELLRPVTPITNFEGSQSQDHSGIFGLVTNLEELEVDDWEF
T1 sequence (Q9Y376 1-341 partner): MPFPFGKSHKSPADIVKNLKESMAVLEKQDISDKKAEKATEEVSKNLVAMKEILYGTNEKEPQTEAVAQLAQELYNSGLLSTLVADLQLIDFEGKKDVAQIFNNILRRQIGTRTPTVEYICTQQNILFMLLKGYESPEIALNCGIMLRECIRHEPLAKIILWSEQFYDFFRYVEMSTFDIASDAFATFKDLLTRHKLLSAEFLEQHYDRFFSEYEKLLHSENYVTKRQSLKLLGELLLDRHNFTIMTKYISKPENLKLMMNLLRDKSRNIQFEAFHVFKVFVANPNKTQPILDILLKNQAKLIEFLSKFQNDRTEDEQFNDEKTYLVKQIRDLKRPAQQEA

[5] = target: Aurora-B(h) (Homo sapiens, UniProt Q96GD4); type: biochemical; details: 100 μM
Chain of Aurora-B(h) (Q96GD4 whole entry): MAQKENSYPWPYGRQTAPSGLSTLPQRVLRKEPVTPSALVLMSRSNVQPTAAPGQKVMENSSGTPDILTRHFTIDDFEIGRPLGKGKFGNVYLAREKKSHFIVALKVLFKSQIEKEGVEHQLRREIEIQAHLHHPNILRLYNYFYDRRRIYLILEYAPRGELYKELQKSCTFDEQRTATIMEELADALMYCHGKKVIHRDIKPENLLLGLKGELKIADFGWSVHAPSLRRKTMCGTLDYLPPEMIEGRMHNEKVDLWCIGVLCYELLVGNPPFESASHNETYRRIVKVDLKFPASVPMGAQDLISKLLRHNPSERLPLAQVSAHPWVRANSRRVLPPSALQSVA

[6] = target: T2, NEK11(h) (Homo sapiens, UniProt Q8NG66); type: biochemical; details: 100 μM
T2 sequence (Q8NG66 1-645): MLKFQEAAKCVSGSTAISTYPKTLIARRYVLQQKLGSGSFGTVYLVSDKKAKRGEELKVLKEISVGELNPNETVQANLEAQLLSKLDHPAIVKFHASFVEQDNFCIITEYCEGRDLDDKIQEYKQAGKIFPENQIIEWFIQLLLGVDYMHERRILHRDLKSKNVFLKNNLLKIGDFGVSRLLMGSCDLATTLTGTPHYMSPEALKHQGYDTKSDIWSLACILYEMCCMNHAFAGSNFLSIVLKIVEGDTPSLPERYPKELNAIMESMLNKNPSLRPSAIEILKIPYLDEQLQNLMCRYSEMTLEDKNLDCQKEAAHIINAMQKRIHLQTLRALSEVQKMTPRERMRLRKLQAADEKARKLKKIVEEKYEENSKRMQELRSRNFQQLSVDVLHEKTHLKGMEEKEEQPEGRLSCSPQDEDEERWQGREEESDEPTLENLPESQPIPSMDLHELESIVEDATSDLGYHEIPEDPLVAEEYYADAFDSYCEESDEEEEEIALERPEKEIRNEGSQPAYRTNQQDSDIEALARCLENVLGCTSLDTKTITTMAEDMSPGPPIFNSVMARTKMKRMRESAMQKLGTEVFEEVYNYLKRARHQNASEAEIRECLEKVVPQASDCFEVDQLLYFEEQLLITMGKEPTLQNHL

[7] = target: PKCθ(h) (Homo sapiens, UniProt Q04759); type: biochemical; details: 100 μM
Chain of PKCθ(h) (Q04759 whole entry): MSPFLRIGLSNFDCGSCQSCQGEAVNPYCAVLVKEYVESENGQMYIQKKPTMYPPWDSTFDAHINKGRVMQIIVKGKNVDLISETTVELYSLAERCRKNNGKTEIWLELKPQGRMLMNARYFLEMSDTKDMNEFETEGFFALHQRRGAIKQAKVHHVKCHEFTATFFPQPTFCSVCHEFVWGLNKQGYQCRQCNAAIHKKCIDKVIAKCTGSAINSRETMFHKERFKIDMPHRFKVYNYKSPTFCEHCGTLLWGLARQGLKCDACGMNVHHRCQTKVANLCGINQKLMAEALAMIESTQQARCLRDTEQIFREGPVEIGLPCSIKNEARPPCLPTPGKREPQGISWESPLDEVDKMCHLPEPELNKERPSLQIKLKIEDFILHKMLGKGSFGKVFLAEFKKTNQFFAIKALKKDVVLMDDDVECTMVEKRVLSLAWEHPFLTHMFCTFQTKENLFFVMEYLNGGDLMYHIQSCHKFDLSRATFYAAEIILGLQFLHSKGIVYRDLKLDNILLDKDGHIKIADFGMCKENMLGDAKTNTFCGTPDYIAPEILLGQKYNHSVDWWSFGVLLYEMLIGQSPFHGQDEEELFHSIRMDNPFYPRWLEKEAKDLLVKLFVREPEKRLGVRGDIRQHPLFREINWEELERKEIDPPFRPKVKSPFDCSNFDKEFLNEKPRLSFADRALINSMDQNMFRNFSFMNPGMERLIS

[8] = target: T3, SAPK3(h) (Homo sapiens, UniProt P53778); type: biochemical; details: 100 μM
T3 sequence (P53778 1-367): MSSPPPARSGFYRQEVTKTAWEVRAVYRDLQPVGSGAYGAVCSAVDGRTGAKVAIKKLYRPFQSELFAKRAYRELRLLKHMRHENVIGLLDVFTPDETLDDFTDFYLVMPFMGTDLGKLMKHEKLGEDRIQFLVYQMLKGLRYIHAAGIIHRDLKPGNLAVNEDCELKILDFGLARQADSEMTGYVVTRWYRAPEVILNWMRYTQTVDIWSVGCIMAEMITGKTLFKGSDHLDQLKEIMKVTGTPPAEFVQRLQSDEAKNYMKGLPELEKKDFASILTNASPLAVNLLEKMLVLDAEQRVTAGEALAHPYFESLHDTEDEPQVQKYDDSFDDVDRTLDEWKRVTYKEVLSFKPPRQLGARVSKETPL

[9] = tested on: MLCK(h); type: biochemical, human; details: 100 μM
[10] = target: CaMKI(h) (Homo sapiens, UniProt Q14012); type: biochemical; details: 100 μM
Chain of CaMKI(h) (Q14012 whole entry): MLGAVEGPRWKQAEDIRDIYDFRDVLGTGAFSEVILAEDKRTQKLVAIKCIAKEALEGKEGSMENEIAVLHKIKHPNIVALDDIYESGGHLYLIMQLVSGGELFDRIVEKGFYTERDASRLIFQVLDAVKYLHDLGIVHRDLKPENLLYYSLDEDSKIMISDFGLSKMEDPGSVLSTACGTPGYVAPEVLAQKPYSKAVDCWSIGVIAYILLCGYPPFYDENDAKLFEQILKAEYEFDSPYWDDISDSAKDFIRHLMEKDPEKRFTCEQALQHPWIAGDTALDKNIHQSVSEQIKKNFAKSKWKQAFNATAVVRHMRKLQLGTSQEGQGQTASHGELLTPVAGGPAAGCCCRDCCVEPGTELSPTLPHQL

[11] = target: IR(h) (Homo sapiens, UniProt P06213); type: biochemical; details: 100 μM
[12] = target: PAR-1Bα(h) (Homo sapiens, UniProt Q7KZI7); type: biochemical; details: 100 μM
Chain of PAR-1Bα(h) (Q7KZI7 1-725 isoform Q7KZI7-4): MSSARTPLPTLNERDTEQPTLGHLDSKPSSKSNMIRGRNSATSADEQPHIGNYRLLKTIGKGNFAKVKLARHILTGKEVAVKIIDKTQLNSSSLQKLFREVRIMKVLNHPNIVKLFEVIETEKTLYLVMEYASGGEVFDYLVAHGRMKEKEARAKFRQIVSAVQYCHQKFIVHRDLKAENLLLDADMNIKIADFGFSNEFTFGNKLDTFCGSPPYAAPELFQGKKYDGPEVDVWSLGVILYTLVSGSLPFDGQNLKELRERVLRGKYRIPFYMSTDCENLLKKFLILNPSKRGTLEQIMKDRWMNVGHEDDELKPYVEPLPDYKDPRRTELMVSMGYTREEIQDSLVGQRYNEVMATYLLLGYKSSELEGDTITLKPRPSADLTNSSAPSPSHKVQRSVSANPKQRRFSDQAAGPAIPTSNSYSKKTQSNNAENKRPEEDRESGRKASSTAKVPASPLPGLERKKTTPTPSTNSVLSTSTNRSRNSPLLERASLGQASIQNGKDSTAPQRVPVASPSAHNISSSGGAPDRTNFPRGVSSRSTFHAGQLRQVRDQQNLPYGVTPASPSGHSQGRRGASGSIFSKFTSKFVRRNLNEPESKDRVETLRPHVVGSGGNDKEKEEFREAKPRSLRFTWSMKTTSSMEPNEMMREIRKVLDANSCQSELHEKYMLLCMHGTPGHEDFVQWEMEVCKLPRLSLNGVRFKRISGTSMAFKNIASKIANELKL

[13] = target: Ret(V804L)(h) (Homo sapiens, UniProt P07949, V804L); type: biochemical; details: 100 μM
[14] = target: PDGFRβ(h) (Homo sapiens, UniProt P09619); type: biochemical; details: 100 μM
Chain of PDGFRβ(h) (P09619 33-1106): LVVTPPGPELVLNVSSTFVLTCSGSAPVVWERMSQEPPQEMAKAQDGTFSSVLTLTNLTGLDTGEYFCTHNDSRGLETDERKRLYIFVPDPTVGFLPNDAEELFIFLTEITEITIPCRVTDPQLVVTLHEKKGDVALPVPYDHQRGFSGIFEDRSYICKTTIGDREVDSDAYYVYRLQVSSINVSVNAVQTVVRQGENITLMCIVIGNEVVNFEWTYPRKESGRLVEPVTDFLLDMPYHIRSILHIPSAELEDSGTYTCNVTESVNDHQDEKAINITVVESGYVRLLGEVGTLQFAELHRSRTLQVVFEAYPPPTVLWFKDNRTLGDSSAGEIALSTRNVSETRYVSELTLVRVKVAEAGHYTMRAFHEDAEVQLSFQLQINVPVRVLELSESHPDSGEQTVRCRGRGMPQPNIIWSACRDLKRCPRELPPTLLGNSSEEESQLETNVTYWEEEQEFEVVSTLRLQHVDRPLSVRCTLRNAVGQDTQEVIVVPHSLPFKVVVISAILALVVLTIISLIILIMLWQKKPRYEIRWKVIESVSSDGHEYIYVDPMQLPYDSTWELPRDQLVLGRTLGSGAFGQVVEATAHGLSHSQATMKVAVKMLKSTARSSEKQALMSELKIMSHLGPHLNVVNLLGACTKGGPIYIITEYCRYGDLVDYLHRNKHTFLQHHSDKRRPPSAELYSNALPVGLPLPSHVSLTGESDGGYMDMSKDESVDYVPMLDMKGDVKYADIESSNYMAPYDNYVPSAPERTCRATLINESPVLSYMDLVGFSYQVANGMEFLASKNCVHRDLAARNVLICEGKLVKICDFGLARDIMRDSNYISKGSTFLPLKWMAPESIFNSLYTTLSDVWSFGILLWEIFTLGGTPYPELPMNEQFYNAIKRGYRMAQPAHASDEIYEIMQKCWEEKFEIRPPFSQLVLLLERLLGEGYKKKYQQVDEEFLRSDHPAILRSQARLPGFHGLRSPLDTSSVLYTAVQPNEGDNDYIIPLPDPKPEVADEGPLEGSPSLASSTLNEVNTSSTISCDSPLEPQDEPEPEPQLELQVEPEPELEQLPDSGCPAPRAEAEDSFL

Chain of MINK(h) (Q8N4C8 whole entry): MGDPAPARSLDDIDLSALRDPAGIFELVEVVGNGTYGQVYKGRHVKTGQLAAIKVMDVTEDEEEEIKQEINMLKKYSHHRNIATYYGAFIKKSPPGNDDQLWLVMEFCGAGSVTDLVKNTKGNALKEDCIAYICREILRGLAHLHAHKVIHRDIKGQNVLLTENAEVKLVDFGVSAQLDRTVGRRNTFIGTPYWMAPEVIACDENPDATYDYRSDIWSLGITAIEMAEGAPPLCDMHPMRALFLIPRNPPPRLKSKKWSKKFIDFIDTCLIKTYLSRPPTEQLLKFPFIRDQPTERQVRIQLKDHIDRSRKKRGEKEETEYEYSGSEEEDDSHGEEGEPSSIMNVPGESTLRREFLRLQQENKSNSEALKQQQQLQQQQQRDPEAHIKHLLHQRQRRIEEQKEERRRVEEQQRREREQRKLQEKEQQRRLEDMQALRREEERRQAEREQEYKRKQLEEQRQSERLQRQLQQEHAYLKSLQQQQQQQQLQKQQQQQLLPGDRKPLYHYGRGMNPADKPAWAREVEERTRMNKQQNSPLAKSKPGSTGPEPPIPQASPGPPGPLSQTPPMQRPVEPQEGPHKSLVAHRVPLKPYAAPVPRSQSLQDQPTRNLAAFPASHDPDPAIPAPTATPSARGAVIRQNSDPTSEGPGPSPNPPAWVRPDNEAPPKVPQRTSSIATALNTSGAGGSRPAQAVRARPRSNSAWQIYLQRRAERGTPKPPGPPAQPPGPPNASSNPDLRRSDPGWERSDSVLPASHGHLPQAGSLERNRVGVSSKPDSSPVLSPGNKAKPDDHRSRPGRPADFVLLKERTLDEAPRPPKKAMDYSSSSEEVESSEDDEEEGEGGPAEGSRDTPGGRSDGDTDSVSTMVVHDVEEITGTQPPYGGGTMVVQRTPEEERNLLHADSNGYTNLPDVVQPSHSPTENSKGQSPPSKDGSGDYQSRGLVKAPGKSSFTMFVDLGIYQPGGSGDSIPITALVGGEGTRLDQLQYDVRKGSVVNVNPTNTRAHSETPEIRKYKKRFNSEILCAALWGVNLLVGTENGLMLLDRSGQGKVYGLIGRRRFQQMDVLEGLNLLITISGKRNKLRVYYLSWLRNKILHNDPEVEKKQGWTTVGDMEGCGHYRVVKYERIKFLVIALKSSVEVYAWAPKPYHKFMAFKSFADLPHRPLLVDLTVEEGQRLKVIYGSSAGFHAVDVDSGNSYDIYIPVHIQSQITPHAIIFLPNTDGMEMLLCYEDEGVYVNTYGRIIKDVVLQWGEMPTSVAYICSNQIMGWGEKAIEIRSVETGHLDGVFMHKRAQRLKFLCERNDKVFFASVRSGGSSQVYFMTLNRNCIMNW

H-YARAAARQARAKALARQLGVAA-OH [MMI-0100]
activity at 100 µM [1]: 96%
activity at 100 µM [2]: 120%

YARAAARQARAKALNRQLGVA (Mammalian) [MMI-0200]
% activity [3]: 84%
% activity [4]: 99%
% activity [5]: 166%
% activity [6]: 95%
% activity [7]: 101%
% activity [8]: 97%
% activity [9]: 103%
% activity [10]: 21%
% activity [11]: 90%
% activity [12]: 110%
% activity [13]: 100%
% activity [14]: 137%

HRRIKAWLKKIKALARQLGVAA (Mammalian) [MMI-0500]
% activity [3]: 3%
% activity [4]: 51%
% activity [5]: 5%
% activity ([1]; 100 μM): 5%
% activity ([2]; 100 μM): 65%
% activity [6]: 2%
% activity [7]: 62%
% activity [8]: 24%
% activity [9]: 0%
% activity [10]: -1%
% activity [11]: 95%
% activity [12]: 97%
% activity [13]: 20%
% activity [14]: 40%
